Measured values: article PMC7367873, “Dissecting the sequence determinants for dephosphorylation by the catalytic subunits of phosphatases PP1 and PP2A” (Nature Communications, 2020)

What was measured:
[1] = test system: GFP-14-3-3β and its binding proteins; test: GFP-14-3-3β co-IP with LC-MS/MS label-free quantification, untreated versus PP1c-treated; set-up: species or system human; conditions: 3 replicates each
[2] = test system: GFP-14-3-3β; test: GFP-14-3-3β co-IP with LC-MS/MS, untreated GFP-14-3-3β versus GFP control (14-3-3 interactome); assay type: binding, human; conditions: 3 replicates each
[3] = PP1 vs untreated, LFQ intensities
[4] = untreated vs GFP, LFQ intensities

Difference (log2), PP1 vs untreated ([1]; log2 difference, pairwise comparison PP1 vs untreated, label-free quantification)	Difference (log2), PP1 vs untreated [1, 3]	Molecule	Difference (log2), untreated vs GFP ([2]; log2 difference, pairwise comparison untreated vs GFP, label-free quantification)	Difference (log2), untreated vs GFP [2, 4]
2.257		SSR4 (protein, UniProt P51571 24-173, looked up) Translocon-associated protein …: EACLEPQITPSYYTTSDAVISTETVFIVEISLTCKNRVQNMALYADVGGKQFPVTRGQDVGRYQVSWSLDHKSAHAGTYEVRFFDEESYSLLRKAQRNNEDISIIPPLFTVSVDHRGTWNGPWVSTEVLAAAIGLVIYYLAFSAKSHIQA	0.4182	
	0.6577 log2	RRBP1 (protein, UniProt Q9P2E9 1-1410, looked up) Ribosome-binding protein 1: MDIYDTQTLGVVVFGGFMVVSAIGIFLVSTFSMKETSYEEALANQRKEMAKTHHQKVEKKKKEKTVEKKGKTKKKEEKPNGKIPDHDPAPNVTVLLREPVRAPAVAVAPTPVQPPIIVAPVATVPAMPQEKLASSPKDKKKKEKKVAKVEPAVSSVVNSIQVLTSKAAILETAPKEVPMVVVPPVGAKGNTPATGTTQGKKAEGTQNQSKKAEGAPNQGRKAEGTPNQGKKTEGTPNQGKKAEGTPNQGKKAEGTPNQGKKAEGAQNQGKKVDTTPNQGKKVEGAPTQGRKAEGAQNQAKKVEGAQNQGKKAEGAQNQGKKGEGAQNQGKKAEGAQNQGKKAEGAQNQGKKAEGAQNQGKKAEGAQNQGKKAEGAQNQGKKAEGAQNQGKKVEGAQNQGKKAEGAQNQGKKAEGAQNQGKKAEGAQNQGKKAEGAQNQGKKAEGAQNQGKKAEGAQNQGKKAEGAQNQGKKVEGAQNQGKKAEGAQNQGKKAEGAQNQGKKAEGAQNQGQKGEGAQNQGKKTEGAQGKKAERSPNQGKKGEGAPIQGKKADSVANQGTKVEGITNQGKKAEGSPSEGKKAEGSPNQGKKADAAANQGKKTESASVQGRNTDVAQSPEAPKQEAPAKKKSGSKKKGEPGPPDADGPLYLPYKTLVSTVGSMVFNEGEAQRLIEILSEKAGIIQDTWHKATQKGDPVAILKRQLEEKEKLLATEQEDAAVAKSKLRELNKEMAAEKAKAAAGEAKVKKQLVAREQEITAVQARMQASYREHVKEVQQLQGKIRTLQEQLENGPNTQLARLQQENSILRDALNQATSQVESKQNAELAKLRQELSKVSKELVEKSEAVRQDEQQRKALEAKAAAFEKQVLQLQASHRESEEALQKRLDEVSRELCHTQSSHASLRADAEKAQEQQQQMAELHSKLQSSEAEVRSKCEELSGLHGQLQEARAENSQLTERIRSIEALLEAGQARDAQDVQASQAEADQQQTRLKELESQVSGLEKEAIELREAVEQQKVKNNDLREKNWKAMEALATAEQACKEKLLSLTQAKEESEKQLCLIEAQTMEALLALLPELSVLAQQNYTEWLQDLKEKGPTLLKHPPAPAEPSSDLASKLREAEETQSTLQAECDQYRSILAETEGMLRDLQKSVEEEEQVWRAKVGAAEEELQKSRVTVKHLEEIVEKLKGELESSDQVREHTSHLEAELEKHMAAASAECQNYAKEVAGLRQLLLESQSQLDAAKSEAQKQSDELALVRQQLSEMKSHVEDGDIAGAPASSPEAPPAEQDPVQLKTQLEWTEAILEDEQTQRQKLTAEFEEAQTSACRLQEELEKLRTAGPLESSETEEASQLKERLEKEKKLTSDLGRAATRLQELLKTTQEQLAREKDTVKKLQEQLEKAEDGSSSKEGTSV		-0.1928 log2
	0.6679 log2	MOV10 (protein, UniProt Q9HCE1 1-1003, looked up) Helicase MOV-10: MPSKFSCRQLREAGQCFESFLVVRGLDMETDRERLRTIYNRDFKISFGTPAPGFSSMLYGMKIANLAYVTKTRVRFFRLDRWADVRFPEKRRMKLGSDISKHHKSLLAKIFYDRAEYLHGKHGVDVEVQGPHEARDGQLLIRLDLNRKEVLTLRLRNGGTQSVTLTHLFPLCRTPQFAFYNEDQELPCPLGPGECYELHVHCKTSFVGYFPATVLWELLGPGESGSEGAGTFYIARFLAAVAHSPLAAQLKPMTPFKRTRITGNPVVTNRIEEGERPDRAKGYDLELSMALGTYYPPPRLRQLLPMLLQGTSIFTAPKEIAEIKAQLETALKWRNYEVKLRLLLHLEELQMEHDIRHYDLESVPMTWDPVDQNPRLLTLEVPGVTESRPSVLRGDHLFALLSSETHQEDPITYKGFVHKVELDRVKLSFSMSLLSRFVDGLTFKVNFTFNRQPLRVQHRALELTGRWLLWPMLFPVAPRDVPLLPSDVKLKLYDRSLESNPEQLQAMRHIVTGTTRPAPYIIFGPPGTGKTVTLVEAIKQVVKHLPKAHILACAPSNSGADLLCQRLRVHLPSSIYRLLAPSRDIRMVPEDIKPCCNWDAKKGEYVFPAKKKLQEYRVLITTLITAGRLVSAQFPIDHFTHIFIDEAGHCMEPESLVAIAGLMEVKETGDPGGQLVLAGDPRQLGPVLRSPLTQKHGLGYSLLERLLTYNSLYKKGPDGYDPQFITKLLRNYRSHPTILDIPNQLYYEGELQACADVVDRERFCRWAGLPRQGFPIIFHGVMGKDEREGNSPSFFNPEEAATVTSYLKLLLAPSSKKGKARLSPRSVGVISPYRKQVEKIRYCITKLDRELRGLDDIKDLKVGSVEEFQGQERSVILISTVRSSQSFVQLDLDFNLGFLKNPKRFNVAVTRAKALLIIVGNPLLLGHDPDWKVFLEFCKENGGYTGCPFPAKLDLQQGQNLLQGLSKLSPSTSGPHSHDYLPQEREGEGGLSLQVEPEWRNEL		0.6155 log2
	0.6799 log2	LRRC47 (protein, UniProt Q8N1G4 2-583, looked up) Leucine-rich …: AAAAVSESWPELELAERERRRELLLTGPGLEERVRAAGGQLPPRLFTLPLLHYLEVSGCGSLRAPGPGLAQGLPQLHSLVLRRNALGPGLSPELGPLPALRVLDLSGNALEALPPGQGLGPAEPPGLPQLQSLNLSGNRLRELPADLARCAPRLQSLNLTGNCLDSFPAELFRPGALPLLSELAAADNCLRELSPDIAHLASLKTLDLSNNQLSEIPAELADCPKLKEINFRGNKLRDKRLEKMVSGCQTRSILEYLRVGGRGGGKGKGRAEGSEKEESRRKRRERKQRREGGDGEEQDVGDAGRLLLRVLHVSENPVPLTVRVSPEVRDVRPYIVGAVVRGMDLQPGNALKRFLTSQTKLHEDLCEKRTAATLATHELRAVKGPLLYCARPPQDLKIVPLGRKEAKAKELVRQLQLEAEEQRKQKKRQSVSGLHRYLHLLDGNENYPCLVDADGDVISFPPITNSEKTKVKKTTSDLFLEVTSATSLQICKDVMDALILKMAEMKKYTLENKEEGSLSDTEADAVSGQLPDPTTNPSAGKDGPSLLVVEQVRVVDLEGSLKVVYPSKADLATAPPHVTVVR		1.1154 log2
	0.6296 log2	NOP58 (protein, UniProt Q9Y2X3 1-529, looked up) Nucleolar protein 58: MLVLFETSVGYAIFKVLNEKKLQEVDSLWKEFETPEKANKIVKLKHFEKFQDTAEALAAFTALMEGKINKQLKKVLKKIVKEAHEPLAVADAKLGGVIKEKLNLSCIHSPVVNELMRGIRSQMDGLIPGVEPREMAAMCLGLAHSLSRYRLKFSADKVDTMIVQAISLLDDLDKELNNYIMRCREWYGWHFPELGKIISDNLTYCKCLQKVGDRKNYASAKLSELLPEEVEAEVKAAAEISMGTEVSEEDICNILHLCTQVIEISEYRTQLYEYLQNRMMAIAPNVTVMVGELVGARLIAHAGSLLNLAKHAASTVQILGAEKALFRALKSRRDTPKYGLIYHASLVGQTSPKHKGKISRMLAAKTVLAIRYDAFGEDSSSAMGVENRAKLEARLRTLEDRGIRKISGTGKALAKTEKYEHKSEVKTYDPSGDSTLPTCSKKRKIEQVDKEDEITEKKAKKAKIKVKVEEEEEEKVAEEEETSVKKKKKRGKKKHIKEEPLSEEEPCTSTAIASPEKKKKKKKKRENED		1.325 log2
	0.6719 log2	CAV1 (protein, UniProt Q03135 2-178, looked up) Caveolin-1: SGGKYVDSEGHLYTVPIREQGNIYKPNNKAMADELSEKQVYDAHTKEIDLVNRDPKHLNDDVVKIDFEDVIAEPEGTHSFDGIWKASFTTFTVTKYWFYRLLSALFGIPMALIWGIYFAILSFLHIWAVVPCIKSFLIEIQCISRVYSIYVHTVCDPLFEAVGKIFSNVRINLQKEI		0.3485 log2
	0.6283 log2	BBX (protein, UniProt Q8WY36 1-941, looked up) HMG box transcription factor …: MKGSNRNKDHSAEGEGVGKRPKRKCLQWHPLLAKKLLDFSEEEEEEDEEEDIDKVQLLGADGLEQDVGETEDDESPEQRARRPMNAFLLFCKRHRSLVRQEHPRLDNRGATKILADWWAVLDPKEKQKYTDMAKEYKDAFMKANPGYKWCPTTNKPVKSPTPTVNPRKKLWAFPSDSSRDLPSPKKAKTEEMPQLNFGMADPTQMGGLSMLLLAGEHALGTPEVSSGTCRPDVSESPELRQKSPLFQFAEISSSTSHSDASTKQCQTSALFQFAEISSNTSQLGGAEPVKRCGKSALFQLAEMCLASEGMKMEESKLIKAKESDGGRIKELEKGKEEKEIKMEKTDETRLQKEAEFEKSAKENLRDSKELRNFEALQIDDIMAIKMEDPKEIRKEELEEDHKCSHFPDFSYSASSKIIISDVPSRKDHMCHPHGIMIIEDPAALNKPEKLKKKKKKSKMDRHGNDKSTPKKTCKKRQSSESDIESVIYTIEAVAKGDWGIEKLGDTPRKKVRTSSSGKGSILDAKPPKKKVKSREKKMSKEKSSDTTKESRPPDFISISASKNISGETPEGIKAEPLTPMEDALPPSLSGQAKPEDSDCHRKIETCGSRKSERSCKGALYKTLVSEGMLTSLRANVDRGKRSSGKGNSSDHEGCWNEESWTFSQSGTSGSKKFKKTKPKEDCLLGSAKLDEEFEKKFNSLPQYSPVTFDRKCVPVPRKKKKTGNVSSEPTKTSKGPFQSQKKNLFHKIVSKYKHKKEKPNVPEKGSGDKWSNKQLFLDAIHPTEAIFSEDRNTMEPVHKVKNIPSIFNTPEPTTTQEPLVGSQKRKARKTKITHLVRTADGRVSPAGGTLDDKPKEQLQRSLPKATETDCNDKCSHNTEVGETRSSTPEMPAVSAFFSLAALAEVAAMENVHRGQRSTPLTHDGQPKEMPQAPVLISCADQ		0.1239 log2
	0.6546 log2	DDX3X;DDX3Y (protein, UniProt O00571 2-662, looked up, or DDX3Y) ATP-dependent RNA helicase …: SHVAVENALGLDQQFAGLDLNSSDNQSGGSTASKGRYIPPHLRNREATKGFYDKDSSGWSSSKDKDAYSSFGSRSDSRGKSSFFSDRGSGSRGRFDDRGRSDYDGIGSRGDRSGFGKFERGGNSRWCDKSDEDDWSKPLPPSERLEQELFSGGNTGINFEKYDDIPVEATGNNCPPHIESFSDVEMGEIIMGNIELTRYTRPTPVQKHAIPIIKEKRDLMACAQTGSGKTAAFLLPILSQIYSDGPGEALRAMKENGRYGRRKQYPISLVLAPTRELAVQIYEEARKFSYRSRVRPCVVYGGADIGQQIRDLERGCHLLVATPGRLVDMMERGKIGLDFCKYLVLDEADRMLDMGFEPQIRRIVEQDTMPPKGVRHTMMFSATFPKEIQMLARDFLDEYIFLAVGRVGSTSENITQKVVWVEESDKRSFLLDLLNATGKDSLTLVFVETKKGADSLEDFLYHEGYACTSIHGDRSQRDREEALHQFRSGKSPILVATAVAARGLDISNVKHVINFDLPSDIEEYVHRIGRTGRVGNLGLATSFFNERNINITKDLLDLLVEAKQEVPSWLENMAYEHHYKGSSRGRSKSSRFSGGFGARDYRQSSGASSSSFSSSRASSSRSGGGGHGSSRGFGGGGYGGFYNSDGYGGNYNSQGVDWWGN		0.1796 log2
